Article PMC13043311, “2′-O-Methyl-guanosine RNA fragments antagonize TLR7 and TLR8 to limit autoimmunity”

Legend:
Conditions in all cases: protein: recombinant; chain copies: 2; single-stranded
[1] = molecular target: T1, TLR7 F507S (Macaca mulatta, UniProt B3Y653 27-839, F507S); experiment: SPR; mean computed from runs 36±1, 46±2, 42±6; SPR with recombinant TLR7/TLR8; buffer, pH and temperature not in the material
T1 sequence: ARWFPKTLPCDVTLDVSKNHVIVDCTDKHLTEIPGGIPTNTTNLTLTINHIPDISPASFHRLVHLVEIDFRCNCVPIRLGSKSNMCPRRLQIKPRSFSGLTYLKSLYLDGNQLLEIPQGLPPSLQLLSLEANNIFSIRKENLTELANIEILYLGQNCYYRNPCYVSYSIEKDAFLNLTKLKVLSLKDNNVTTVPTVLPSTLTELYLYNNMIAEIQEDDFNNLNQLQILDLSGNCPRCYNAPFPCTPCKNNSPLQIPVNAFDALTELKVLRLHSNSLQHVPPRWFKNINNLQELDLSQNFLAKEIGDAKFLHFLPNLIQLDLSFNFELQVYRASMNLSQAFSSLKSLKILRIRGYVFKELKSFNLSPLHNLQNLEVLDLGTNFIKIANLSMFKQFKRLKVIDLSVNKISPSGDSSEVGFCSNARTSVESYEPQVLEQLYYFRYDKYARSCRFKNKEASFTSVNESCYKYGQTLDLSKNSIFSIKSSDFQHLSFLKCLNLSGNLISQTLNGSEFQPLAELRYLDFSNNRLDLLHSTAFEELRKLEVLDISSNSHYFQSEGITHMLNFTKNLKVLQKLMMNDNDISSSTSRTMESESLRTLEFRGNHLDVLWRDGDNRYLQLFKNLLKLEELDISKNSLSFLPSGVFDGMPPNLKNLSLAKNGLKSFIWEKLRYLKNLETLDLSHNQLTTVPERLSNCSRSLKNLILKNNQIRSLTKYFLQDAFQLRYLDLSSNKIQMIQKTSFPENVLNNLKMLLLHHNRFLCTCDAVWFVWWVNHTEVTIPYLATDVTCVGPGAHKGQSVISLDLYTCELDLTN

[2] = molecular target: T2, TLR7 F506L (Macaca mulatta, UniProt B3Y653 27-839, F506L); experiment: SPR; mean computed from runs 4±0.5, 5±0.6, 5±2; SPR with recombinant TLR7/TLR8; buffer, pH and temperature not in the material
T2 sequence: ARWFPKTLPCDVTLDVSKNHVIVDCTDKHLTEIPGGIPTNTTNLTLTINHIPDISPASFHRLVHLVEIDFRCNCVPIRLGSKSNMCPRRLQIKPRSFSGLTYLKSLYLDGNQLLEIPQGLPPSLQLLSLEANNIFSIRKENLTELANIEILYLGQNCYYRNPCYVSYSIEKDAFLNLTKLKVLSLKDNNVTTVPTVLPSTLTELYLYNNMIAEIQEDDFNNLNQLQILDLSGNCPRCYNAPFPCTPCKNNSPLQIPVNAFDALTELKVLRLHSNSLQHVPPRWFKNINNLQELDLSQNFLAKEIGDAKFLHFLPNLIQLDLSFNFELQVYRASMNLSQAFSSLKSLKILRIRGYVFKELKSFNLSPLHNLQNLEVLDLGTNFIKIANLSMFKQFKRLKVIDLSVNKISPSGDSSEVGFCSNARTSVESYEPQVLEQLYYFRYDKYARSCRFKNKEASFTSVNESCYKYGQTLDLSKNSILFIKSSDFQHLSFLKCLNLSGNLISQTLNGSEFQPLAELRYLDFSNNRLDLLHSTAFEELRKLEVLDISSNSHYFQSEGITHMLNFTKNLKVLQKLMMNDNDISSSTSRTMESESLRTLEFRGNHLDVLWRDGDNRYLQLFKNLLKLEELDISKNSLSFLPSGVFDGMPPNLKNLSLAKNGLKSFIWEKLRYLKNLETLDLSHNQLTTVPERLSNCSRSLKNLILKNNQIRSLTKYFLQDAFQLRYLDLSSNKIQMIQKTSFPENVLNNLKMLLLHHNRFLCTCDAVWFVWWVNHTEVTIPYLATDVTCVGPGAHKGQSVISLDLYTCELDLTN

[3] = molecular target: T3, TLR7 P435S (Macaca mulatta, UniProt B3Y653 27-839, P435S); experiment: SPR; mean computed from runs 5±0.6, 6±0.7, 6±0.7; SPR with recombinant TLR7/TLR8; buffer, pH and temperature not in the material
T3 sequence: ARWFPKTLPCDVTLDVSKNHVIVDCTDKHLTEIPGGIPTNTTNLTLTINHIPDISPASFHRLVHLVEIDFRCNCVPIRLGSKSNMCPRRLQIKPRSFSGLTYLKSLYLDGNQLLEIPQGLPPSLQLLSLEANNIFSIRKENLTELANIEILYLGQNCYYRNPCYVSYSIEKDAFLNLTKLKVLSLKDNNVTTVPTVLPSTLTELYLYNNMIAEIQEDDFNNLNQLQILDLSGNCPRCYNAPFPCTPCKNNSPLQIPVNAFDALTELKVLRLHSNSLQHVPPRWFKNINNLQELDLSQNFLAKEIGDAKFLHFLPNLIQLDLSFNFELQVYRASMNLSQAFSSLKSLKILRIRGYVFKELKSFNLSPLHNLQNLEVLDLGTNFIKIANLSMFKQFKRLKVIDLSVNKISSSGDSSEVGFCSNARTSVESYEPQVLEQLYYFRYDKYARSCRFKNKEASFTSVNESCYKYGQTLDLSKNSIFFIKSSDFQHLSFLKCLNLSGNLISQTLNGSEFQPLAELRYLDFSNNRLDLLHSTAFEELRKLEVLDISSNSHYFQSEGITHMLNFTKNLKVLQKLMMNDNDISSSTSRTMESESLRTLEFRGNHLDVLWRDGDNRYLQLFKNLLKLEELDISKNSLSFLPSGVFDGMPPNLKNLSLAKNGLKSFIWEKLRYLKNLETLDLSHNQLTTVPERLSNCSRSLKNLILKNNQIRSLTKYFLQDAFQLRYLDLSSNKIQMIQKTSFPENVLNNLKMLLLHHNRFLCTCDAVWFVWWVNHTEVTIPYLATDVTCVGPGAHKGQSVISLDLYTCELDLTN

B1: mGrUrC PS (XNA)
RNA: GUC
modifications: 2'-OMe G1, RNA U2 C3; phosphorothioate linkages
- Kd [1]: 41.3 µM
- Kd [2]: 4.67 µM
- Kd [3]: 5.67 µM
